This passage reports Relative cAMP EC50, cAMP Rel EC50, nM (1% HSA) and Relative cAMP EC50, nM (0.1% casein) results from patent US20240270821A1, “GIP/GLP1/GCG TRI-RECEPTOR AGONISTS AND USES THEREOF” (priority 2023, published 2024).

Experiment in all cases: cell-based or functional assay
Assay [1] concerns the target human glucagon receptor (human) (UniProt P47871).
Assay [2] deals with T1, human GIP receptor (human) (UniProt P48546).
T1 sequence (looked up): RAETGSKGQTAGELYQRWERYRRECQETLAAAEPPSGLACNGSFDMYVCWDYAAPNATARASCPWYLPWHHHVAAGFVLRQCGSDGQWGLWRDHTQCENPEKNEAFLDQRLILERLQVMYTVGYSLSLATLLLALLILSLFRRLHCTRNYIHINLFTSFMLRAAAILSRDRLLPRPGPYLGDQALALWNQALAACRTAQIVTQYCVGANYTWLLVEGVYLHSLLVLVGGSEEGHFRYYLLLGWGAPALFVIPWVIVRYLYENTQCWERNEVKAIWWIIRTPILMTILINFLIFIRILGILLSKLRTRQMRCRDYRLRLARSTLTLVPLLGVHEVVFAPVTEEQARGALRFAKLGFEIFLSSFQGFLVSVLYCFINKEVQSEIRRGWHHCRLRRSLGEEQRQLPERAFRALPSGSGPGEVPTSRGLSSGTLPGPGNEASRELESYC

In the next assay the target is hGLP-1R (Homo sapiens, UniProt P43220).
Chain of hGLP-1R (P43220 24-463): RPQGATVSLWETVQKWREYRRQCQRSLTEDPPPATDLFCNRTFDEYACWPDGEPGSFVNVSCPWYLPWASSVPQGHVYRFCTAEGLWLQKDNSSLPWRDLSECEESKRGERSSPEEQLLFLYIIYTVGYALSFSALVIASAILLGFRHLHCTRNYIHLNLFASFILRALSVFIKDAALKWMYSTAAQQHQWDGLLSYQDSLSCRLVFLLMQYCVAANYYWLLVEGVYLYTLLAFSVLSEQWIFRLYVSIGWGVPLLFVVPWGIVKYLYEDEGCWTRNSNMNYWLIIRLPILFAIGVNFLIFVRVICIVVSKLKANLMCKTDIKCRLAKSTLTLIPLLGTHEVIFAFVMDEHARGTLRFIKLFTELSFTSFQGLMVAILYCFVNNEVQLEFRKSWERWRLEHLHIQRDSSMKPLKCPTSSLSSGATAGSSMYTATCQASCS

Chain of human glucagon receptor (human) (P47871 26-477): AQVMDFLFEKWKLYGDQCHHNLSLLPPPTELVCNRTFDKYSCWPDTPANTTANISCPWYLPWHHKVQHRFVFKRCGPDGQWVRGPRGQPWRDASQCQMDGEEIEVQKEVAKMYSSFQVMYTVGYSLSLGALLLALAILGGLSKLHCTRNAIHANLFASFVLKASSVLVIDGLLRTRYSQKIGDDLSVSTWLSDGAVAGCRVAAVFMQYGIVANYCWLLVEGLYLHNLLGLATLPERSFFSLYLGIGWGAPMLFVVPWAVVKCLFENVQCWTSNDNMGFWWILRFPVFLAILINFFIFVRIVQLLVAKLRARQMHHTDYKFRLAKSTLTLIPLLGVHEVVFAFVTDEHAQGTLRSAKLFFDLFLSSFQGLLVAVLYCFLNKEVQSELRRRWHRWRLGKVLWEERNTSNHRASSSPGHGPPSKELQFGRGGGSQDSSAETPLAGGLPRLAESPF

B1: Example 215 (peptide)
chain: YXQGTFTSDFSKXLDKKAQXAFIEYLIEGGESSGAPPPSGS
modifications: Lys acylated with AEEA-γGlu-C18 diacid; non-natural residues; C-amide; synthetic construct; SITE 2: note = 2-Aminoisobutyric Acid; SITE 13: note = alpha-methyl-leucine; SITE 17: note = Lysine is chemically modified through conjugation of the epsilon-amino group of the Lysine side chain with (2-[2-(2-Amino-ethoxy)-ethoxy]-acetyl)-(gamma-Glu)-CO-(CH2) 16-CO2H; SITE 20: n
B1: the Relative cAMP EC50 in assay [1] is 9.77 nM; in assay [2], 0.418 nM; in the assay with hGLP-1R it was 0.803 nM. In addition, the cAMP Rel EC50, nM (1% HSA) in assay [1] came to 1510 nM; in assay [2], 87.3 nM; with hGLP-1R, 162 nM.

B2: Example 220 (peptide)
chain: YXQGTFTSDFSRXLDKKAQXAFIEYLIEGGESSGAPPPSGS
modifications: non-natural residues; lysine acylated with AEEA linker C18 diacid; C-amide; synthetic construct; SITE 2: note = 2-Aminoisobutyric Acid; SITE 13: note = alpha-methyl-leucine; SITE 17: note = Lysine is chemically modified through conjugation of the epsilon-amino group of the Lysine side chain with (2-[2-(2-Amino-ethoxy)-ethoxy]-acetyl)-(gamma-Glu)-CO-(CH2) 16-CO2H; SITE 20: n
Take B2: the Relative cAMP EC50 in assay [1] worked out at 11.2 nM; in assay [2], 0.411 nM; in the assay with hGLP-1R, 1.01 nM. Besides, the cAMP Rel EC50, nM (1% HSA) in assay [1] came to 1990 nM; in assay [2] it was 87.1 nM; with hGLP-1R, 189 nM.

B3: Example 221 (peptide)
chain: YXQGTFTSDFSRXLDKKAQXAFIEYLIEXGESSGAPPPSGS
modifications: C-terminal amide; lysine acylated with AEEA-γ-Glu-C18 diacid; synthetic construct; SITE 2: note = 2-Aminoisobutyric Acid; SITE 13: note = alpha-methyl-leucine; SITE 17: note = Lysine is chemically modified through conjugation of the epsilon-amino group of the Lysine side chain with (2-[2-(2-Amino-ethoxy)-ethoxy]-acetyl)-(gamma-Glu)-CO-(CH2) 16-CO2H; SITE 20: n
Consider B3, for which the values for the Relative cAMP EC50 (in assay [1]; in assay [2]; with hGLP-1R) were 11.3 nM, 0.105 nM and 0.629 nM, respectively.

B4: Example 216 (peptide)
chain: YXQGTFTSDFSKXLDKKAQXAFIEYLIEXGESSGAPPPSGS
modifications: Aib, αMeL; K acylated AEEA-γGlu-C18 diacid; C-amide; synthetic construct; SITE 2: note = 2-Aminoisobutyric Acid; SITE 13: note = alpha-methyl-leucine; SITE 17: note = Lysine is chemically modified through conjugation of the epsilon-amino group of the Lysine side chain with (2-[2-(2-Amino-ethoxy)-ethoxy]-acetyl)-(gamma-Glu)-CO-(CH2) 16-CO2H; SITE 20: n
Take B4: the Relative cAMP EC50 was 2.7 nM in assay [1], 0.0887 nM in assay [2] and 0.52 nM in the assay with hGLP-1R. Also, the cAMP Rel EC50, nM (1% HSA) in assay [1] came to 895 nM; in assay [2] it was 12 nM; in the assay with hGLP-1R it was 90.6 nM.

B5: Example 156 (peptide)
chain: YXQGTFTSDFSXXLDKKAQXAFIEYLLEAGPSSGEPPPSGT
modifications: (AEEA)2-γGlu-C18 diacid on Lys; non-natural residues; amide; synthetic construct; SITE 2: note = 2-Aminoisobutyric Acid; SITE 12: note = L-ornithine; SITE 13: note = alpha-methyl-leucine; SITE 17: note = Lysine is chemically modified through conjugation of the epsilon-amino group of the Lysine side chain with (2-[2-(2-Amino-ethoxy)-ethoxy]-acetyl)2-(gamma-Glu)
With B5, the Relative cAMP EC50, nM (0.1% casein) in assay [1] was determined as 3.62 nM; in assay [2], 0.208 nM; with hGLP-1R it was 3.37 nM. In addition, the results for the cAMP Rel EC50, nM (1% HSA) (in assay [1]; in assay [2]; with hGLP-1R) were 1520 nM, 25.8 nM and 695 nM, respectively.

B6: Example 207 (peptide)
chain: YXQGTFTSDFSXXLDKKAQXAFIEYLLEAGHSSGAPPPSGE
modifications: Aib, Orn, αMeL, D-Ala; lysine acylated C18 diacid; amide; synthetic construct; SITE 2: note = 2-Aminoisobutyric Acid; SITE 12: note = L-ornithine; SITE 13: note = alpha-methyl-leucine; SITE 17: note = Lysine is chemically modified through conjugation of the epsilon-amino group of the Lysine side chain with (2-[2-(2-Amino-ethoxy)-ethoxy]-acetyl)-(gamma-Glu)
On to B6, for which the Relative cAMP EC50 in assay [1] came out at 4.24 nM; in assay [2], 0.321 nM; in the assay with hGLP-1R, 4.36 nM. For the same molecule, the results for the cAMP Rel EC50, nM (1% HSA) (in assay [1]; in assay [2]; with hGLP-1R) were 770 nM, 15.2 nM and 225 nM, respectively.

B7: Example 178 (peptide)
chain: YXQGTFTSDXSXXLDKKAQXAFIEYLLEXGPSSGAPPPSGS
modifications: Aib, F(4CN), Orn, αMeL; lipidated Lys; C-terminal amide; synthetic construct; SITE 2: note = 2-Aminoisobutyric Acid; SITE 10: note = 4-cyano-L-phenylalanine; SITE 12: note = L-ornithine; SITE 13: note = alpha-methyl-leucine; SITE 17: note = Lysine is chemically modified through conjugation of the epsilon-amino group of the Lysine side chain with (2-[2-(2-
On to B7, for which the Relative cAMP EC50, nM (0.1% casein) in assay [1] amounted to 7.29 nM; in assay [2] it was 0.34 nM; in the assay with hGLP-1R it was 4.01 nM.

B8: Example 170 (peptide)
chain: YXQGTFTSDFSXXLDKKAQXAFIEWLLEGGHSSGAPPPSGS
modifications: Lys acylated with AEEA-γGlu-C18 diacid; non-natural residues; C-amide; synthetic construct; SITE 2: note = 2-Aminoisobutyric Acid; SITE 12: note = L-ornithine; SITE 13: note = alpha-methyl-leucine; SITE 17: note = Lysine is chemically modified through conjugation of the epsilon-amino group of the Lysine side chain with (2-[2-(2-Amino-ethoxy)-ethoxy]-acetyl)-(gamma-Glu)
B8: the Relative cAMP EC50, nM (0.1% casein) in assay [1] is 5.29 nM; in assay [2], 0.401 nM; in the assay with hGLP-1R, 4.11 nM. For the same molecule, the cAMP Rel EC50, nM (1% HSA) in assay [1] amounted to 1800 nM; in assay [2], 43.5 nM; with hGLP-1R, 361 nM.

B9: Example 159 (peptide)
chain: YXQGTFTSDFSXXLDKKAQXAFIEYLLEGGPSSGAPPPGGQ
modifications: non-natural residues; lipidated Lys; C-terminal amide; synthetic construct; SITE 2: note = 2-Aminoisobutyric Acid; SITE 12: note = L-ornithine; SITE 13: note = alpha-methyl-leucine; SITE 17: note = Lysine is chemically modified through conjugation of the epsilon-amino group of the Lysine side chain with (2-[2-(2-Amino-ethoxy)-ethoxy]-acetyl)-(gamma-Glu)
With B9, the Relative cAMP EC50, nM (0.1% casein) was 6.89 nM in assay [1], 0.343 nM in assay [2] and 4.15 nM in the assay with hGLP-1R. Moreover, the cAMP Rel EC50, nM (1% HSA) in assay [1] came to 475 nM; in assay [2], 49.7 nM; with hGLP-1R, 588 nM.

B10: Example 218 (peptide)
chain: YXQGTFTSDFSXXLDKKAQXAFIEYLIEXGESSGAPPPSGS
modifications: acylated Lys, C-terminal amide, non-natural residues; synthetic construct; SITE 2: note = 2-Aminoisobutyric Acid; SITE 12: note = L-ornithine; SITE 13: note = alpha-methyl-leucine; SITE 17: note = Lysine is chemically modified through conjugation of the epsilon-amino group of the Lysine side chain with (2-[2-(2-Amino-ethoxy)-ethoxy]-acetyl)-(gamma-Glu)
Consider B10, for which the results for the Relative cAMP EC50 (in assay [1]; in assay [2]; with hGLP-1R) were 7.89 nM, 0.0853 nM and 0.76 nM, respectively.

B11: Example 194 (peptide)
chain: YXQGTFTSDFSXXLDKKAQXAFIEYLLEXGPSSGAPPPEGS
modifications: Aib, Orn, αMeL; acylated lysine; C-terminal amide; synthetic construct; SITE 2: note = 2-Aminoisobutyric Acid; SITE 12: note = L-ornithine; SITE 13: note = alpha-methyl-leucine; SITE 17: note = Lysine is chemically modified through conjugation of the epsilon-amino group of the Lysine side chain with (2-[2-(2-Amino-ethoxy)-ethoxy]-acetyl)2-(gamma-Glu)
As for B11, the Relative cAMP EC50, nM (0.1% casein) stood at 4.32 nM in assay [1], 0.212 nM in assay [2] and 4.69 nM in the assay with hGLP-1R. Moreover, the figures for the cAMP Rel EC50, nM (1% HSA) (in assay [1]; in assay [2]; in the assay with hGLP-1R) were 813 nM, 19.7 nM and 697 nM, respectively.

B12: Example 184 (peptide)
chain: YXQGTFTSDFSXXLDKKAQXAFIEYLLEXGXSSGAPPPSGT
modifications: non-natural residues, acylated Lys, C-terminal amide; synthetic construct; SITE 2: note = 2-Aminoisobutyric Acid; SITE 12: note = L-ornithine; SITE 13: note = alpha-methyl-leucine; SITE 17: note = Lysine is chemically modified through conjugation of the epsilon-amino group of the Lysine side chain with (2-[2-(2-Amino-ethoxy)-ethoxy]-acetyl)2-(gamma-Glu)
With B12, the Relative cAMP EC50, nM (0.1% casein) in assay [1] is 5.23 nM; in assay [2], 0.162 nM; with hGLP-1R, 5.02 nM. Also, the cAMP Rel EC50, nM (1% HSA) came out at 1050 nM in assay [1], 16.2 nM in assay [2] and 465 nM with hGLP-1R.
